Experimental findings from publication PMC11468790, “New Bacterial Aryl Sulfotransferases: Effective Tools for Sulfation of Polyphenols” (Journal of Agricultural and Food Chemistry, 2024) are described below.

In data set [1] the test system is T1, O=[N+]([O-])c1ccc(OS(=O)(=O)O)cc1.
T1 construct: C-terminal His6 tag, pET-26b(+) NcoI/SacI, E. coli BL21(DE3)pLysS, IMAC, ca. 70 kDa
As to the kind of experiment: purified protein. Type of data set: biochemical, Desulfosporosinus sp. HMP52. Particulars: varied donor pNPS 0.02-50 mM, acceptor phenol (5-200 mM), 30 °C, activity buffer Tris-glycine pH 8.9.

Data set [2] relates to O=[N+]([O-])c1ccc(OS(=O)(=O)O)cc1. The data set can be described thus: purified protein. The settings on record: varied donor pNPS 0.02-50 mM, acceptor phenol (5-200 mM), 30 °C, activity buffer Tris-glycine pH 8.9.

Regarding DsAST (Desulfosporosinus sp. HMP52), in data set [1], the Michaelis-Menten constant (Km) is 570 ± 20 µM, the kcat was 32.5 ± 0.4 s⁻¹ and the specificity constant (kcat/Km) is 57000 M⁻¹ s⁻¹.

With DalAST (Desulfofalx alkaliphila), in data set [2], the Michaelis-Menten constant (Km) stood at 34 ± 2 µM, the kcat is 0.705 ± 0.007 s⁻¹ and the kcat/Km is 21000 M⁻¹ s⁻¹.

A word on the Km: it is the substrate concentration at which the rate is half of its maximum. What is called kcat is the maximal rate divided by the concentration of active sites. A word on the kcat/Km: it is the turnover number divided by the Michaelis constant.
